Literature values as cited in PMC4072998.

Columns and labels:
[1] = molecular target: T1, Glu14 (UniProt position 14, GAILAEVIGTT); test: other
[2] = molecular target: T1, Glu14; test: kinetics; settings: pre-equilibrium; free protein binding substrate
[3] = molecular target: Asp14 (UniProt position 14, GAILADVIGTT); test: kinetics; settings: pre-equilibrium; free protein binding substrate

Substance	pKa ([1]; equilibrium, substrate-induced deprotonation)	pKa ([1]; substrate-free protein competing for H+ versus TPP+)	pKa [2]	pKa [3]
EmrE (small multidrug resistance transporter) (Escherichia coli)	8.3-8.5	7-8	~7.3	
EmrE E14D mutant (Escherichia coli; E14D)				5.8
